In patent publication US10434074B2, “Peptide and small molecule agonists of EPHA and uses thereof” (CASE WESTERN RESERVE UNIVERSITY, priority 2004, dated 2019):

Experiments:
EphA1 = molecular target: T1, EphA1 (Homo sapiens, UniProt P21709); assay: Proliferation of DU145 cells expressing EphA1; type: cell-based; conditions: 10% serum 7 days or 0.5% serum 18 days
T1 construct: expressed in transfected cells; host or cells: DU145 cells, retroviral infection
T1 sequence (P21709 26-976): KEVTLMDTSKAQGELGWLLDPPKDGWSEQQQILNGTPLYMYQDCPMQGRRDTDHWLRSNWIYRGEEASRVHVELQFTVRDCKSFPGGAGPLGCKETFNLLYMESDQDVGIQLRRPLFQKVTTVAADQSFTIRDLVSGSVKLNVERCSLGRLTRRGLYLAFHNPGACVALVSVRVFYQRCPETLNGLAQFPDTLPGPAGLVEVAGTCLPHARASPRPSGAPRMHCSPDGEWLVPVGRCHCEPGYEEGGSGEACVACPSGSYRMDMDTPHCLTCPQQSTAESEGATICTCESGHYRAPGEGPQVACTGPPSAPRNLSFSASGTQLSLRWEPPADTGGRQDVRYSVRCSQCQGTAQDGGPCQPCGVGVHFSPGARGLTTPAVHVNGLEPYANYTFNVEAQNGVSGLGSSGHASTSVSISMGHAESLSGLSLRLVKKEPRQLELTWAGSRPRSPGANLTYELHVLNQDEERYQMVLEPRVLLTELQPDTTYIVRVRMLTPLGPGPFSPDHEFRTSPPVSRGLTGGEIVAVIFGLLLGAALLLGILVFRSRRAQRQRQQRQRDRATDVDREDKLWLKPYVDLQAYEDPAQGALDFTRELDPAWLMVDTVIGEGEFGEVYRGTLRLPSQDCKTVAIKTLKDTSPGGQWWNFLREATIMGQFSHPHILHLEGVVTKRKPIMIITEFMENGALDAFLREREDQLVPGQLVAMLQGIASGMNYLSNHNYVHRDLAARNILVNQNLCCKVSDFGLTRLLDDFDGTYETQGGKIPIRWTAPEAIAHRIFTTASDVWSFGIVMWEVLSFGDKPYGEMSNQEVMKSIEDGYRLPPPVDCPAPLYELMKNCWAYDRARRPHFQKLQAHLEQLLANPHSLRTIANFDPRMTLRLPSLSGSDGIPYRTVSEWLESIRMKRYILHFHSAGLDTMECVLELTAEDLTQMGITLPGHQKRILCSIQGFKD
Procedure: (§1) FIGS. 49(A-B) illustrate expression of EphA1 in DU145 cells infected with vector control (control) and EphA1 expression retrovirus. FIG. 49B illustrates that about 2,000 cells were plated on 12-well plates in the regular culture medium (10% serum) and low serum medium (0.5%). Cell were cultured for 7 days (10% serum) or 18 days (0.5%). FIG. 49B illustrates that proliferation of prostatic epithelial cells expressing EphA1 and activated with Ephrin-A1 is inhibited.
as §1, with “DU145 human prostatic epithelial cells were infected with retrovirus expressing EphA1. FIG. 49A illustrates” for “FIGS. 49(A-B) illustrate”

EphA2 [1] = molecular target: T2, EphA2 (Mus musculus, UniProt Q03145); assay: EphA activation and ERK1/2 in primary keratinocytes; type: cell-based
T2 construct: endogenous in cells; host or cells: primary keratinocytes from newborn (P1) mouse epidermis
Procedure: (§2) FIGS. 43(A-C) illustrate EphA2 kinase is required for ephrin-A1-induced inhibition of ERK1/2 MAP kinase and growth suppression in primary keratinocytes. A) EphA kinase activation by ephrin-A1 in EphA2^+/+ and EphA2^+/− but not EphA2^−/− keratinocytes. Keratinocytes were isolated from newborn (P1) mice and cultured on matrigel-coated culture plates. They were stimulated with 1.0 μg/ml of ephrin-A1-Fc for 10 min. The unstimulated cells were used as control. EphA receptors including EphA2 were precipitated from the cell lysates using ephrin-A1-Fc, and were subjected to immunoblot analysis with rabbit polyclonal anti-phospho-EphA/B antibody. Membrane was stripped and blotted again for total EphA2. B) Ephrin-A1 stimulation leads to inactivation of ERK1/2 MAPK in EphA2^+/+ and EphA2^+/− but not EphA2^−/− keratinocytes. Total cell lysates were analyzed by immunoblot with the indicated antibodies. The band densities from p-ERK blot were normalized to the corresponding total ERK1 blot. The ratios of p-ERK between ephrin-A1-treated and untreated were shown in the lower panel. C). Ephrin-A1 stimulation inhibits clonal growth of EphA2^+/+ and EphA2^+/− but not EphA2^−/− keratinocytes. Primary keratinocytes were plated on 6-well plates coated with matrigel at 5,000 cells/well, and allowed to grow for 12 days in the presence of Fc (0.5 μg/ml) or ephrin-A1-Fc (1.0 μg/ml).
(§3) To determine cellular mechanisms underlying the increased susceptibility to skin tumorigenesis, primary keratinocytes were isolated and cultured from epidermis of neonatal (P1) mice. They were stimulated with ephrin-A1 fused to the heavy chain of human IgG1 (ephrin-A1-Fc). EphA kinases including EphA2 were precipitated with excess ephrin-A1-Fc, and blotted with antibody raised against phosphorylated dityrosine peptide that is highly conserved in the juxtamembrane region of all Eph kinases. Phosphorylation of this region has been correlated with Eph receptor activation.
(§4) Primary keratinocytes were isolated from neonatal mouse skin as described previously (Caldelari et al., 2000). Briefly, the entire P1 mouse skin was dissected and incubated with 5 U/ml dispase II (Boehringer Mannheim) overnight at 4° C. Epidermal layer was separated from dermal layer using forceps, minced and digested with 0.25% trypsin/0.05 mMEDTA. After neutralizing trypsin by washing with serum-containing medium, cells were filtered through sterile gauze pads, spun down and resuspended in serum-free keratinocytes culture medium (Gibco) containing pituitary extract, 5 ng/ml EGF, 100 U/ml penicillin, 0.1 mg/ml streptomycin, and 0.25 μg/ml amphotericin, and plated on 6-well plates precoated with 50 μg/ml matrigel. Cell stimulation with ephrin-A1-Fc, immunoprecipitation, and immunoblot were carried as described preciously (Miao et al., 2003; Miao et al., 2005).

EphA2 [2] = assay: as above; type: cell-based, mouse
Procedure: as §2, §3, §4

Akt = Akt activities in PC-3 cells; type: cell-based, human

T2 sequence (Q03145 26-977): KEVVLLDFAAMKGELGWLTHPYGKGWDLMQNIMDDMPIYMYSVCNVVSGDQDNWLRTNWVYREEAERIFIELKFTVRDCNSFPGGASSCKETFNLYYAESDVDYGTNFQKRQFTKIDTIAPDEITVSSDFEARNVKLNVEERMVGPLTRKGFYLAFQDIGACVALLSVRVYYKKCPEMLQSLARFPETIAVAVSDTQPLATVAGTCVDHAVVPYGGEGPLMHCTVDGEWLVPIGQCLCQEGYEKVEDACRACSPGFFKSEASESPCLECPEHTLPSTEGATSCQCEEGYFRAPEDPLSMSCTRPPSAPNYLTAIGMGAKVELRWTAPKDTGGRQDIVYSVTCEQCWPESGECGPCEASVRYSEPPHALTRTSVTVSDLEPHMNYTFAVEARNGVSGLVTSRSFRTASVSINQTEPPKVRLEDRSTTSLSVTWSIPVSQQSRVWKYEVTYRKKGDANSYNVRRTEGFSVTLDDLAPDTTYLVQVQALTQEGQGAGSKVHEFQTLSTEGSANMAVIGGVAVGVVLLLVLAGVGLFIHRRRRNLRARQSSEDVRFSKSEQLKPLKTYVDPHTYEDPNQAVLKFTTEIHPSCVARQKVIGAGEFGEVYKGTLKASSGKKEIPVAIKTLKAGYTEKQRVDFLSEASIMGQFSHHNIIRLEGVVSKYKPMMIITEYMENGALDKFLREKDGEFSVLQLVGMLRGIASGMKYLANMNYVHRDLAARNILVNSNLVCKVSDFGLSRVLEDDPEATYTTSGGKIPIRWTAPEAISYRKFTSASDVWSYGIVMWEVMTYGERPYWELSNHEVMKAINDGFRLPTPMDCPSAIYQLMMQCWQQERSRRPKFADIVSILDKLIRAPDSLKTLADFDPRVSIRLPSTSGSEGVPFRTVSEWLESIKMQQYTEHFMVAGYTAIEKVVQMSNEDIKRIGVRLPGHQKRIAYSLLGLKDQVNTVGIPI

- proliferation of cells expressing EphA1 (EphA1): is inhibited
- ERK1/2 activities (EphA2 [1]; heterozygous keratinocytes): intermediate response
- EphA2 activation (EphA2 [1]; wild type and heterozygous keratinocytes): readily activated
- ERK1/2 activities (EphA2 [1]; wild type keratinocytes): significantly attenuated
B1: ephrin-A1-Fc: ephrin-A1 dimerized by fusion to the heavy chain of human IgG1 (protein)
chain: DRHTVFWNSSNPKFRNEDYTIHVQLNDYVDIICPHYEDHSVADAAMEQYILYLVEHEEYQLCQPQSKDQVRWQCNRPSAKHGPEKLSEKFQRFTPFTLGKEFKEGHSYYYISKPIHQHEDRCLRLKVTVSGKITHSPQAHDNPQEKRLAADDPEVRVLHSIGHS
modifications: left off: a dimerising Fc or GST
notes: ephrin-A1 dimerized by fusion to the heavy chain of human IgG1
- p-EphA/B signal (EphA2 [2]; EphA2-null keratinocytes): undetectable
- ERK1/2 activities (EphA2 [2]; EphA2 homozygous deletion): completely abolished the inhibitory effects
- Akt activities (Akt): inhibition of Akt activities
